Reference: the RNAGym collection of RNA variant scans (doi:10.7554/elife.90254)

B1: LINE1-full (parent)
chain: UACGUAGGUGGUUUUCCCCUGAUAGUGCUAAGGGGGCCUGGAAGUUUGGACUGGGCAGAGCUCAACACAGCGUGGCAAAGUGGCUGUGGCUAGACUGCCUCUCUGGAUUCCUCGUCACUCAGCAGGGCAUCUCUGAGAGAAAUGCC

Variants of: B1
Experiment: self-cleavage, relative activity (ratio to wild type); higher = more cleavage; in vitro, sequencing; the parent is a self-cleaving ribozyme
Work on C103U A138U yielded a self-cleavage of 1.07.
In the case of A50G A57G, the self-cleavage is reported as 0.32.
For C19U A107U, the self-cleavage was 1.5.
In the case of C71G U81A, the self-cleavage is reported as 0.28.
U23A G93A showed a self-cleavage of 0.08.
Work on C68U A107U yielded a self-cleavage of 0.19.
For U13A A136G, the self-cleavage was 1.38.
In the case of U73C U132A, the self-cleavage is reported as 1.25.
A30G A43G showed a self-cleavage of 0.78.
Variant C3U U100A has a self-cleavage of 0.68.
In the case of U15A U109C, the self-cleavage is reported as 0.86.
C18A U73G gave a self-cleavage of 1.01.
For U13A U112C, the self-cleavage was 0.9.
With A22U U108C the self-cleavage was 1.19.
U45C C145U showed a self-cleavage of 1.5.
Work on A30G U100A yielded a self-cleavage of 1.59.
Variant G10A U143C has a self-cleavage of 1.4.
U45C G55C gave a self-cleavage of 0.1.
Work on G8A U47C yielded a self-cleavage of 1.82.
For U96C U112C, the self-cleavage was 0.12.
G53A A59G gave a self-cleavage of 0.06.
For U1C A121G, the self-cleavage was 0.79.
Variant A117G A136U has a self-cleavage of 1.48.
Work on A78U A79G yielded a self-cleavage of 0.74.
With U12G U104A the self-cleavage was 1.76.
Variant U13C U45A has a self-cleavage of 0.76.
A64G U108C showed a self-cleavage of 0.31.
In the case of G34A U102C, the self-cleavage is reported as 1.43.
U9A A59G showed a self-cleavage of 0.18.
In the case of U47G A141G, the self-cleavage is reported as 1.45.
A31G A138U showed a self-cleavage of 1.05.
Work on U91A U112C yielded a self-cleavage of 0.58.
In the case of A77U C123U, the self-cleavage is reported as 0.84.
With A92U U109C the self-cleavage was 0.65.
Work on G32U A42G yielded a self-cleavage of 1.07.
Variant U13A U104C has a self-cleavage of 1.51.
For U12G A31G, the self-cleavage was 0.87.
With U9C G11A the self-cleavage was 1.07.
In the case of U45C C146A, the self-cleavage is reported as 1.56.
Work on U23C G34U yielded a self-cleavage of 1.44.
For A65U U119G, the self-cleavage was 0.45.
In the case of A6G G25A, the self-cleavage is reported as 0.1.
U85G A140G gave a self-cleavage of 0.19.
In the case of U52G G72A, the self-cleavage is reported as 0.
For U47A U52C, the self-cleavage was 1.37.
With U14A C99G the self-cleavage was 0.63.
In the case of U26A U115A, the self-cleavage is reported as 1.07.
With C28A A42G the self-cleavage was 0.82.
A22U A69U gave a self-cleavage of 0.12.
Variant C18U U102C has a self-cleavage of 1.61.
Work on C18U U102G yielded a self-cleavage of 0.62.
In the case of U102C A140G, the self-cleavage is reported as 1.45.
A79G A94G gave a self-cleavage of 0.35.
In the case of U26C A140G, the self-cleavage is reported as 1.19.
A117U A124G showed a self-cleavage of 1.3.
A77U U87C gave a self-cleavage of 0.09.
Work on U13A G126A yielded a self-cleavage of 1.08.
With A42C U108C the self-cleavage was 0.8.
Variant U52A C131U has a self-cleavage of 1.46.
With G54U A64G the self-cleavage was 0.21.
Variant A50U A77U has a self-cleavage of 0.83.
For A24U U26C, the self-cleavage was 0.97.
In the case of A22G C66U, the self-cleavage is reported as 0.07.
G86A A124G gave a self-cleavage of 0.02.
Work on U23C A24C yielded a self-cleavage of 1.09.
In the case of U45C A138G, the self-cleavage is reported as 1.47.
Variant G54A U81A has a self-cleavage of 0.78.
Work on U81C U96A yielded a self-cleavage of 0.1.
U46C A77U gave a self-cleavage of 1.51.
Variant C76U U96C has a self-cleavage of 0.13.
For C16U U96A, the self-cleavage was 0.03.
For U87C U119C, the self-cleavage was 0.24.
Variant U87A A136G has a self-cleavage of 0.08.
U14C U134C showed a self-cleavage of 1.34.
In the case of U73C A136G, the self-cleavage is reported as 1.64.
For U47G C68U, the self-cleavage was 0.06.
U39C G105U gave a self-cleavage of 0.85.
A30C G58U gave a self-cleavage of 0.09.
In the case of U15A U96A, the self-cleavage is reported as 0.09.
With G35U G75C the self-cleavage was 0.77.
In the case of A64C C101U, the self-cleavage is reported as 0.28.
In the case of U20A G86A, the self-cleavage is reported as 0.18.
In the case of U73A U96A, the self-cleavage is reported as 0.05.
A43G U143A gave a self-cleavage of 1.24.
With A50G G74A the self-cleavage was 0.48.
Work on A24G C131U yielded a self-cleavage of 1.59.
A2U C76U gave a self-cleavage of 1.07.
Variant A57G C71G has a self-cleavage of 0.07.
U39G U85C showed a self-cleavage of 0.14.
Variant A2U C113A has a self-cleavage of 0.63.
G32A U62A showed a self-cleavage of 0.08.
A59G A141U gave a self-cleavage of 0.2.
Work on U5C U85C yielded a self-cleavage of 0.27.
In the case of A30C A138G, the self-cleavage is reported as 1.84.
In the case of U39C U62C, the self-cleavage is reported as 0.09.
Work on A59G A136G yielded a self-cleavage of 0.07.
With U62C A94G the self-cleavage was 0.11.
With C37U U85C the self-cleavage was 0.19.
Work on U52C U91G yielded a self-cleavage of 0.17.
In the case of U85A A92G, the self-cleavage is reported as 0.13.
Variant C28U A50G has a self-cleavage of 1.09.
Work on U46C U62C yielded a self-cleavage of 0.02.
For C3U A67U, the self-cleavage was 0.15.
U87C G139A gave a self-cleavage of 0.14.
Variant C63A U81A has a self-cleavage of 0.06.
For U85A U108C, the self-cleavage was 0.12.
For U85A U134G, the self-cleavage was 0.12.
For A92U A117G, the self-cleavage was 1.46.
Work on U23A A141G yielded a self-cleavage of 1.21.
For C3A U52G, the self-cleavage was 1.31.
U39C A107G gave a self-cleavage of 1.36.
In the case of C38A A141U, the self-cleavage is reported as 1.49.
With U52A A129G the self-cleavage was 1.3.
Variant U20C A22U has a self-cleavage of 1.12.
For G35A U62A, the self-cleavage was 0.05.
U47C G86A showed a self-cleavage of 0.06.
Work on U9A A64G yielded a self-cleavage of 0.26.
A79G C118U showed a self-cleavage of 2.23.
For U39A U108C, the self-cleavage was 1.24.
G35U A94G showed a self-cleavage of 0.19.
U9G U112C showed a self-cleavage of 0.73.
In the case of C28U A117G, the self-cleavage is reported as 1.58.
C95G showed a self-cleavage of 0.06.
With U85A A94G the self-cleavage was 0.15.
In the case of U96A G114A, the self-cleavage is reported as 0.06.
Work on C84U U108C yielded a self-cleavage of 0.15.
Work on C56U U73C yielded a self-cleavage of 0.25.
With A22G U109C the self-cleavage was 1.36.
G88C A129G gave a self-cleavage of 0.12.
U102C G144C gave a self-cleavage of 1.17.
With A77U G93U the self-cleavage was 0.04.
Work on U91A A117U yielded a self-cleavage of 0.6.
For U15C A69G, the self-cleavage was 0.47.
Work on G74U G114A yielded a self-cleavage of 1.21.
G49A U100C gave a self-cleavage of 1.96.
For C123U A124G, the self-cleavage was 1.25.
Work on G34U U104A yielded a self-cleavage of 1.53.
Variant U29C A141G has a self-cleavage of 1.27.
A2G A141U showed a self-cleavage of 0.24.
For U52G A124G, the self-cleavage was 1.57.
Work on U100C C111U yielded a self-cleavage of 1.48.
A22G G122A gave a self-cleavage of 0.
C28G U39C showed a self-cleavage of 0.82.
For U87G U108C, the self-cleavage was 0.16.
U14G U85A showed a self-cleavage of 0.28.
With A30C G36A the self-cleavage was 1.09.
Variant G10A U119A has a self-cleavage of 0.93.
A59G A94G gave a self-cleavage of 0.23.
A59G A94U showed a self-cleavage of 0.07.
C28U A77G gave a self-cleavage of 1.38.
Work on U13G U73A yielded a self-cleavage of 2.54.
With G27A U29C the self-cleavage was 0.79.
U96G U102C showed a self-cleavage of 0.
For A22U A77U, the self-cleavage was 0.62.
Work on C16A U104A yielded a self-cleavage of 0.47.
U15C G32U gave a self-cleavage of 1.15.
Variant G89A U91C has a self-cleavage of 0.05.
For C99U U115A, the self-cleavage was 0.33.
For C18U A94G, the self-cleavage was 0.32.
A77U A129U gave a self-cleavage of 1.24.
G53A A138G showed a self-cleavage of 1.72.
G21A U96A showed a self-cleavage of 0.06.
In the case of C28U A136G, the self-cleavage is reported as 0.
A43C A65U showed a self-cleavage of 0.14.
Variant C38A U115C has a self-cleavage of 1.14.
G105U U108C showed a self-cleavage of 1.98.
U96A C116U gave a self-cleavage of 0.11.
